Target: ComPC1-CRM197 fusion protein

B1: PglS oligosaccharyltransferase (protein)
chain: MNSIFKKIKNYTIVSGVFFLGSAFIIPNTSNLSSTLYKELIAVLGLLILLTVKSFDYKKILIPKNFYWFLFVIFIIFIQLIVGEIYFFQDFFFSISFLVILFLSFLLGFNERLNGDDLIVKKIAWIFIIVVQISFLIAINQKIEIVQNFFLFSSSYNGRSTANLGQPNQFSTLILITLFLLCYLREKNSLNNMVFNILSFCLIFANVMTQSRSAWISVILISLLYLLKFQKKIELRRVIFFNIVFWTLVYCVPLLFNLIFFQKNSYSTFDRLTMGSSRFEIWPQLLKAVFHKPFIGYGWGQTGVAQLETINKSSTKGEWFTYSHNLFLDLMLWNGFFIGLIISILILCFLIELYSSIKNKSDLFLFFCVVAFFVHCLLEYPFAYTYFLIPVGFLCGYISTQNIKNSISYFNLSKRKLTLFLGCCWLGYVAFWVEVLDISKKNEIYARQFLFSNHVKFYNIENYILDGFSKQLDFQYLDYCELKDKYQLLDFKKVAYRYPNASIVYKYYSISAEMKMDQKSANQIIRAYSVIKNQKIIKPKLKFCSIEY
glycosylation with CPS8, Western blot of periplasmic extracts (anti-His): the ComPC1-CRM197 was also glycosylated by PglS
